Assay results reported in publication PMC10916398.

Legend:
HUα = target: T1, HUα (UniProt P0ACF0); assay: EMSA
T1 sequence: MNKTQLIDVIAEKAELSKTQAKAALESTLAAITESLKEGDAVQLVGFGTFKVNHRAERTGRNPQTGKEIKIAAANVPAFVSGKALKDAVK

HUβ = target: T2, HUβ (UniProt P0ACF4); assay: EMSA
T2 sequence: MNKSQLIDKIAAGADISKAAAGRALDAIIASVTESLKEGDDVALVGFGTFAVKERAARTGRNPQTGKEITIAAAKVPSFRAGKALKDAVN

Row | Sequence | binding signal (HUα) | binding signal (HUβ) | binding (HUα) | binding (HUβ)
1 | AAACTGAATTTACGACCACGTAAATGTTTAGGTTGGAAAACACCTTATGAAGTTTACTTCAAAAAA (double strand) [IRR-FAM-NO-IRR] | binds more weakly | binds more weakly |  | 
2 | CCCATACTGAATATACACTTGAGAGTATTTATAATTTGTATCTTGAATTGTCAAACCAAGTGCAACGATTTTTTGAAGTAAACTTCATAAGGTGTTTTCCAACCTAAACATTTACGTGGTCGTAAATTCAGTTT (double strand) [IRR-FAM-Long] |  |  | binds | binds
3 | CTTGAATTGTCAAACCAAGTGCAACGATTTTTTGAAGTAAACTTCATAAGGTGTTTTCCAACCTAAACATTTACGTGGTCGTAAATTCAGTTT (double strand) [IRR-FAM-WT] |  |  | binds | binds
4 | GGCAGTCGTTGATAGTGGATGGCGGCTTTATGTTGGCGAATCCACAGTTCAACCCAGAATAGCGCAGTGAGGTGCGTGGATATTTCATTGGGGCTGAATTTACAATCCAAGTGCAACAAAAAAAGAAGTACTCATCAACTAGAATATAATTTTGTTTCCACACAAAAACCATTTCCAAATGATGAGTACTTCCTACCGACATCTTACAATAAACGAGCGAGAAAAGATAATGATTTTACTCGCACAGGGC (double strand) [IRL-FAM-Long (ISApl1 promoter)] |  |  | binds | binds
